{
  "source": "patent US20240245800A1",
  "about": "“HIGHLY SPECIFIC RABBIT SINGLE -DOMAIN ANTIBODIES FOR DRUG DELIVERY IN IMMUNOTHERAPY APPLICATIONS” (TECHNOPHAGE, INVESTIGAÇÃO E DESENVOLVIMENTO EM …, priority 2021, published 2024)",
  "data": [
    {"system": "CLBL-1 cell extracts", "assay": "ELISA screening of anti-cNHL VL sdAb clones", "assay_type": "binding, canine", "conditions": "clone supernatants, CLBL-1 extracts", "experimental": "After the phage display selection, in order to express and select the best anti-cNHL VL sdAbs, phagemid DNA derived from the in vivo output selection was cloned into a PT7-PL vector and transformed into an E. coli strain BL21. Then, individual clones were auto induced, and the supernatant tested in ELISA assays against CLBL-1 and Jurkat cell extracts. To select the best lead candidates, three parameters were evaluated: binding against cNHL, expression yields, and unspecific binding. […] After selection, to characterize the selected clones, the 43 best lead candidates were analysed by sanger sequencing (FIG. 6B). To get further insights of the enriched sequences during the in vivo phage display selection, we performed next generation sequencing (NGS) of the biopanning repertoires. NGS allows massive sequence analysis of the panning population, enabling a genomic assessment of the library diversity and frequency of each clone. Two samples were sequenced: biopanning from the CLBL-1 tumour models and initial immune VL sdAb cNHL library (FIG. 7). Upon bioinformatic analysis of the NGS data, we were able to determine the diversity of each sample and identify the most represented clones. A total of 34880 sequences were obtained for the biopanning from the CLBL-1 tumours. The NHL library obtained a total of 48864 sequences. The number of singletons, consisting of the sequences with a single occurrence, varied between samples, ranging from 76.8% in the library, and 33.3% in the in vivo biopanning from the CLBL-1. Through the comparison of the sequence prevalence between the biopannings and the library, we were able to verify that the number of occurrences in each sequence was higher in the biopanning clones. […] By comparing ELISA data, sanger sequencing and NGS analysis, the six best clones (A12, C8, C5, E1, E2, and B12) were produced and purified. Due to its binding characteristics and production properties, C5 sdAb clone was chosen to be thoroughly characterized and used in the development of the proposed ADC.\nTo express and select anti-NHL-sdAbs, phagemid DNA encoding selected anti-cNHL sdAbs was cloned into PT7-PL (PT7-peptide leader) vector and transformed into E. coli strain BL21. Individual colonies were inoculated in 100 μl of Super Broth (SB) medium containing Overnight Express™ Autoinduction System (Novagen®) and 100 μg/ml of ampicillin and incubated overnight at 30° C. Next day, 40 μl of BugBuster (Roche) containing anti-protease cocktail-EDTA free inhibitors (Roche) were added and incubated for 30 min at 4° C. Then, plates were centrifuged at 1200 rpm and the supernatant was tested in ELISA assays. Three different conditions were assessed: binding to the sdAbs to the antigen, expression level and unspecific binding. After coating the wells with CLBL-1 cell extracts or Raji cell extracts for 1 h at 37° C., wells were blocked with 3% BSA in PBS. Then, wells were washed with PBS and clones were added and incubated for 1 h, at 37° C. Next, plates were washed and incubated with anti-HA HRP antibody (Roche). Finally, after 1 h incubation, plates were washed and ABTS (Roche) was added and optical density at 405 nm was measured at different time points. To evaluate the expression level, the same protocol was applied, excluding antigen coating.\nFor unspecific binding, antigen was replaced by 3% BSA. Rabbit sera and anti-CD20 antibody were used as positive controls. BL21 cell extracts were used as negative controls. In the end, the ten best individual clones were sequenced at Eurofins company. Sequence analysis was performed using the Vector Nti software (Invitrogen). The antibody frameworks, CDRs and the amino acid numbering and sequences followed the rules described by Kabat et al. (1991) Sequences of proteins of immunological interest. Bethesda, MD, U.S. Dept. of Health and Human Services, Public Health Service, National Institutes of Health. […]", "values": [
      {"molecule": "E1: rabbit derived anti-cNHL VL sdAb clone, SEQ. ID. 4 (antibody, listed as Oryctolagus cuniculus, V domains shown) VL: ELVMTQTPSPVSAAVGGTVTIACQSSQSVYSGTLLSWYQQKPGQSPKLLIHEASTLASGVPSRFKGSGSGTQFTLTISDLECADAATYYCLGGFDDDADNAFGGGTELEIL", "ELISA signal against NHL cells": "best results"},
      {"molecule": "A12: rabbit derived anti-cNHL VL sdAb clone, SEQ. ID. 1 (antibody, listed as Oryctolagus cuniculus, V domains shown) VL: ELVMTQTPSSVSAAVGGTATIDCQSTKSVYNNNALSWYQQKPGQPPKLLIYRASTLTSGVPSRFSGSGSGTQFTLTINDVQCDDAATYYCQGGISGSSDAPFGGGTEVVVK", "ELISA signal against NHL cells": "best results"},
      {"molecule": "B12: rabbit derived anti-cNHL VL sdAb clone, SEQ. ID. 6 (antibody, listed as Oryctolagus cuniculus, V domains shown) VL: ELVLTQTPASVEAAVGGTVTIKCQASQSIGSYLAWYQQKPGQPPKLLIYGASTLASGVPSRFSGSRSDTQFSLTISDLECADAATYYCQGYYYSDSSSYVNTFGGGTEVVVK", "ELISA signal against NHL cells": "best results"},
      {"molecule": "C8: rabbit derived anti-cNHL VL sdAb clone, SEQ. ID. 2 (antibody, listed as Oryctolagus cuniculus, V domains shown) VL: ELVMTQTPSSVSAAVGGTVTINCRASEDIESYLAWYQQKPGQPPKRLIYGASNLASGVSSRFKGSGSGTDFTLTISDLECADAATYYCQCIVGGSTYGNVFGGGTELEIL", "ELISA signal against NHL cells": "best results"},
      {"molecule": "E2: rabbit derived anti-cNHL VL sdAb clone, SEQ. ID. 5 (antibody, listed as Oryctolagus cuniculus, V domains shown) VL: ELDLTQTPPSLSASVGGTVTINCQASESISNYLAWYQQKPGQPPKLLIYGASNLESGVPSRFRGSGSGTEFTLTISDMKAEDAATFYCQSGYYTAGDLTFGAGTNVEIK", "ELISA signal against NHL cells": "best results"}
    ]},
    {"target": "T1, Human Topoisomerase I (Homo sapiens, UniProt P11387)", "T1 construct": "purchased Topogen", "T1 sequence (P11387 1-765)": "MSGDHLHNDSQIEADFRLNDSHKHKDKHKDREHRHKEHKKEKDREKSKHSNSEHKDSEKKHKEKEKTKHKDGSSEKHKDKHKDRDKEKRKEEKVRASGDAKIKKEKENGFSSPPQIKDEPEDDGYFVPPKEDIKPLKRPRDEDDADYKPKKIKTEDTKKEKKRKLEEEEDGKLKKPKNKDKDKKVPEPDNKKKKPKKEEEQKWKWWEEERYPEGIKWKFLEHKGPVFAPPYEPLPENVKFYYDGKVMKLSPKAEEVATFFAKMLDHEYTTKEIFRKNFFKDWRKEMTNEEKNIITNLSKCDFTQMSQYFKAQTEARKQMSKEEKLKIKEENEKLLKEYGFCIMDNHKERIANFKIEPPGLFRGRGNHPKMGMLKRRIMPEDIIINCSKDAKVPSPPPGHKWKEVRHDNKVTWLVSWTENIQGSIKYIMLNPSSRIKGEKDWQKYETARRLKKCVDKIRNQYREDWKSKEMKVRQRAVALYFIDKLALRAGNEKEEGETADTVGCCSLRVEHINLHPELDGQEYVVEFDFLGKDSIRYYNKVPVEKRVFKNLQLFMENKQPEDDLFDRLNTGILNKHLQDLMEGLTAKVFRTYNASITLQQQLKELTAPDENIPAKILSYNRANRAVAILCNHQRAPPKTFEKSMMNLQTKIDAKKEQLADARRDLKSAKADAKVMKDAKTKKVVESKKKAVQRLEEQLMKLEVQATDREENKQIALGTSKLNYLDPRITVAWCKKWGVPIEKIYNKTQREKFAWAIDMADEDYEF", "assay": "DNA Topo I activity assay (Human Topoisomerase I Assay Kit)", "assay_type": "biochemical", "conditions": "10 U Topo I, supercoiled DNA, agarose gel", "experimental": "FIG. 11—Cytotoxic effects of C5-DAB-SN-38. To determine the effect of C5-DAB-SN-38 on CLBL-1 and Jurkat cells, a cell viability assay was performed using the WST-1 reagent. 6×10^4 cells were seeded and treated with increasing amounts of compound. After 48 h treatment, cell viability was assessed. […] B) On the other hand, ADC had no effect on Jurkat cells, proving the specificity of the ADC. C5 was used as control. Best-fit EC50 values of each formulation were calculated using GraphPad Prism software (version 9.2.0, San Diego, CA, USA) using the log (inhibitor) vs response (variable slope) function. D) Effects of C5-DAB-SN-38 on DNA TopoI activity. To evaluate the effects of C5-DAB-SN-38 on DNA Topo I, we evaluated its activity using the Human Topoisomerase I Assay Kit. After incubation of C5-DAB-SN-38 with 1× reaction buffer and 10 U of Topo I for 1 h at 37° C., the supercoiled DNA was added. To stop the reaction, stop loading buffer was added. DNA TopoI activity was visualized by 1% agarose gel electrophoresis […] with ethidium bromide. Relaxed DNA indicated TopoI activity while supercoiled DNA indicated an inhibition. […] Relaxed DNA and supercoiled DNA were used as positive/negative controls. C5 and SN-38 were also used as controls.\nTopo I activity on VL-DAB-SN38 was determined using the Human Topoisomerase I Assay Kit (Topogen, CO, USA) according to the manufacturer's instructions. […]", "values": [
      {"molecule": "CCc1c2c(nc3ccc(O)cc13)-c1cc3c(c(=O)n1C2)COC(=O)[C@]3(O)CC", "note": "[SN-38, reference compound]", "effect on DNA Topo I activity": "inhibited"}
    ]},
    {"system": "bEnd.3 cell monolayer", "assay": "In vitro BEB model translocation of sdAbs (western blot)", "assay_type": "in vitro ADME, mouse", "conditions": "15 μg sdAb at apex, 90 min, WB", "experimental": "FIG. 16A 15 μg of each purified sdAb was added to the apex of the transwell and incubated for 90 min.\nFIG. 16B Following incubation period, all volumes were collected from the apex and the base and analysed by WB with anti-HA antibody.\nTo determine the in vitro BEB translocation efficiency of the selected VL sdAb, 15 μg of each purified antibody was added to the apex of the transwell and incubated for 15 and 90 min. The incubation time and sdAb concentration were selected based on previous optimization assays (data not shown). Following incubation, the cells were washed once with PBS and three times with TB. Evaluation of the translocation efficiency of each VL sdAb was assessed by running […] of the recovered volume from the apex and the base on a 15% SDS-PAGE acrylamide gel followed by WB analysis with HRP-conjugated […] antibody at 1:3000 (Roche). As a positive control, 100 ng of each purified VL sdAb was used. The FC5 VHH was used as a positive control. The same procedure was performed to evaluate the BEB crossing properties of each purified rabbit serum, but the incubation was performed for 15 and 60 min and the detection was performed with goat-α anti-rabbit IgG-Fc specific HRP at 1:10,000. Chemiluminescence was detected using the Chemidoc XRS+System (Bio-rad).", "values": [
      {"molecule": "RG23: rabbit derived BBB targeting VL sdAb clone, SEQ. ID 44 to 48 series; ^99mTc(CO)3-labelled in Table 1 (antibody, listed as Oryctolagus cuniculus, V domains shown, 99mTc(CO)3 label) VL: ELVMTQTPASVSEPVGGTVTIKCQASQSIGNALAWYQQKPGQPPKLLIYGASNLESGVPSRFKGSGSGTEFTLTISDLECADAATYYCQSYYYSSSSSYGSYAFGGGTEVVVK", "in vitro BEB translocation": "increased in vitro BEB-crossing efficiency"},
      {"molecule": "RG22: rabbit derived BBB targeting VL sdAb clone, SEQ. ID 44 to 48 series; ^99mTc(CO)3-labelled in Table 1 (antibody, listed as Oryctolagus cuniculus, V domains shown, 99mTc(CO)3 label) VL: ELVLTQTPASVEAAVGGTVTINCQASQSVYNNKNLAWYQQKPGQPPKLLIYRASTLASGVPSRFSGSGSGTQFTLTISGAQCDDAATYYCQGEFSCSSGDCIAFGGGTEVVVK", "in vitro BEB translocation": "increased in vitro BEB-crossing efficiency"},
      {"molecule": "RG3: rabbit derived BBB targeting VL sdAb clone, SEQ. ID 44; ^99mTc(CO)3-labelled in Table 1 (antibody, listed as Oryctolagus cuniculus, V domains shown, 99mTc(CO)3 radiolabel) VL: ELVMTQTPSPVSAAMGGTVSISCQSSKSVANNNELSWYQQKPGQPPKLLIYEASKLASGVPSRFKGSGSGTQFTLTISDVQCDDAATYYCLGDYYSSSDNAFGGGTEVVVK", "in vitro BEB translocation": "increased in vitro BEB-crossing efficiency"}
    ]}
  ]
}
